Measurements as given in the supplement of paper PMC9732359.
± gives the uncertainty stated by the source.

Test: protein stability index of a GFP-peptide fusion (yeast GPS) (PSI 1-4); higher = more stable; sorted into four equal gates, so the index is relative within each strain
In short: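 Mid-log yeast cultures in leucine-free medium, carrying a pooled plasmid library, were sorted into four equal gates by their GFP/Cherry fluorescence ratio. Each plasmid expressed Cherry along with GFP fused upstream of a tiled 17-residue yeast protein peptide. Plasmids recovered from each gate were PCR-amplified and Illumina-sequenced, with reads assigned to strains by barcodes. The protein stability index was obtained by summing each gate's read frequency weighted by its gate number.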

Row | Sequence | protein stability index (doa10∆) | protein stability index (pdr5∆) | protein stability index (san1∆) | protein stability index (ubr1∆)
1 | FLKEKDTVAELQAQLDY [FAS2] | 2.88 ± 0.091 | 3.07 ± 0.11 | 3.15 ± 0.051 | 3.02 ± 0.067
2 | DDSDNVMSSDDENAPVA [PRE10] | 3.12 ± 0.087 | 3.42 ± 0.11 | 3.49 ± 0.11 | 3.11 ± 0.14
3 | PRTLIGHRATVTDIAII [RPN14] | 3.24 ± 0.18 | 3.54 ± 0.2 | 3.29 ± 0.1 | 3.18 ± 0.094
4 | PDDMVEINSVGNPGLPQ [ITC1] | 2.85 ± 0.086 | 3.26 ± 0.04 | 3.05 ± 0.072 | 3.09 ± 0.06
5 | IVKTSSGNEMPPQDAEG [RPS19A] | 2.3 ± 0.25 | 3.46 ± 0.29 |  | 
6 | KLASTLEKISSSNKDLE [SMC4] | 3.09 ± 0.053 | 2.68 ± 0.067 | 2.96 ± 0.038 | 2.82 ± 0.056
7 | KDIAKRQFKEILTVKEE [RRP40] | 2.2 ± 0.045 | 2.4 ± 0.048 | 2.46 ± 0.057 | 2.52 ± 0.042
8 | LIYGISDEERDDEDDEH [AAR2] | 3.22 ± 0.11 | 3.05 ± 0.097 | 3.52 ± 0.066 | 3.06 ± 0.099
9 | VRSEMGEPIHKIATRGV [FAS1] | 3.14 ± 0.29 | 3.14 ± 0.28 |  | 2.95 ± 0.089
10 | LRKNKLGYARFILLDRL [SMC4] | 1.15 ± 0.042 | 1.25 ± 0.048 | 1.14 ± 0.14 | 1.15 ± 0.055
11 | GYDKSGAHLLEFQPSGN [PRE5] | 2.68 ± 0.25 | 3.22 ± 0.18 | 2.79 ± 0.21 | 
12 | IGVVSLTNGVTEHVRQN [RRP6] | 3.29 ± 0.14 | 3.42 ± 0.11 | 3.32 ± 0.099 | 3.33 ± 0.063
13 | HGQLKLSIQYMIQKVME [RPN5] | 2.17 ± 0.1 | 2.73 ± 0.081 | 2.04 ± 0.15 | 2.84 ± 0.085
14 | NIPKPLNSYHIKNGRIY [RGR1] | 2.28 ± 0.04 | 2.18 ± 0.03 | 1.97 ± 0.047 | 2.14 ± 0.027
15 | GVEQLHYTGISQSACRE [SSN3] | 2.69 ± 0.089 | 2.38 ± 0.085 | 2.66 ± 0.13 | 2.56 ± 0.099
16 | EISRLKTSLSIKVENLN [SMC2] | 2.76 ± 0.077 | 2.55 ± 0.13 | 2.39 ± 0.17 | 2.56 ± 0.064
17 | DPWNKLKHTDYWYEQDS [RPB3] |  |  |  | 2.99 ± 0.12
18 | IYDDWLDRISSYTAFSR [PRP8] | 2.16 ± 0.05 | 1.75 ± 0.044 | 1.92 ± 0.073 | 2.24 ± 0.039
19 | KGNVGFVFTNEPLTEIK [RPP0] | 3.56 ± 0.18 | 3.06 ± 0.1 | 2.06 ± 0.21 | 3.58 ± 0.2
20 | TFGINLIYVNPFMLQWG [FAS1] | 2.22 ± 0.067 | 2.35 ± 0.08 | 2.46 ± 0.074 | 2.4 ± 0.051
21 | VSNRVAAPARAGAVAPE [RPP0] | 2.06 ± 0.11 | 2.54 ± 0.097 | 2.64 ± 0.11 | 2.56 ± 0.17
22 | PSYAERQSSDESDNYRL [YML031W/NDC1] | 2.62 ± 0.049 | 2.32 ± 0.043 | 2.75 ± 0.057 | 2.7 ± 0.036
23 | ESENFKIIALQPNEISF [RGR1] | 2.39 ± 0.091 | 2.55 ± 0.11 | 2.54 ± 0.084 | 2.49 ± 0.075

Row | Sequence | protein stability index (doa10∆) | protein stability index (pdr5∆) | protein stability index (san1∆) | protein stability index (ubr1∆)
24 | RPQKLRASLVPGTVLIL [RPL6A] | 2.1 ± 0.066 | 2.32 ± 0.064 | 2.11 ± 0.077 | 2.45 ± 0.081
25 | WDLLPEPIRFLPNQFPL [SWI1] | 2.54 ± 0.059 | 2.58 ± 0.071 | 2.26 ± 0.054 | 2.31 ± 0.069
26 | LLIIRSLKNTDALLNST [YJL039C/NUP192] | 2.97 ± 0.086 | 3 ± 0.096 | 2.37 ± 0.14 | 2.45 ± 0.15
27 | LALALGILYMGQGEQVD [RPN1] | 1.26 ± 0.16 | 1.5 ± 0.13 | 1.45 ± 0.13 | 1.23 ± 0.11
28 | PIKADKDYSQILKEEFP [RPN5] | 3 ± 0.1 | 2.46 ± 0.079 | 2.18 ± 0.13 | 2.69 ± 0.062
29 | ATDLAGPANNPNEFMQF [PRP8] | 3.21 ± 0.063 | 3.35 ± 0.059 | 3.23 ± 0.033 | 3.4 ± 0.05
30 | QVSEVDPGRYNKVCRIE [RPB8] | 3.07 ± 0.13 | 3.04 ± 0.081 | 2.65 ± 0.084 | 2.93 ± 0.06
31 | AEEAAAEEEEESDDDMG [RPP0] | 3.62 ± 0.12 | 2.94 ± 0.15 | 3.23 ± 0.056 | 3.27 ± 0.068
32 | YATKLSKFTKIPPTFDK [MED4] | 3.08 ± 0.089 | 3.28 ± 0.084 | 3.29 ± 0.08 | 2.87 ± 0.14
33 | FGVSFIYAGYDDRYGYQ [PRE9] | 2.33 ± 0.09 | 2.61 ± 0.097 | 2.04 ± 0.19 | 2.45 ± 0.11
34 | ALFQPPNFDWDLCSSVL [ROX3] | 3.08 ± 0.077 | 3.29 ± 0.098 | 2.95 ± 0.089 | 2.92 ± 0.09
35 | VRVQRQKKILSIRLKVP [RPL8A] | 1.49 ± 0.032 | 1.28 ± 0.032 | 1.26 ± 0.054 | 1.25 ± 0.025
36 | KQFDSIFNSNKAKIIPG [SIR4] | 2.32 ± 0.046 | 2.33 ± 0.047 | 2.69 ± 0.064 | 2.65 ± 0.041
37 | AVIESVVNQPTGKIVDV [FAS1] | 2.49 ± 0.097 | 2.57 ± 0.14 | 2.52 ± 0.089 | 2.39 ± 0.08
38 | VRNFKEAAKLLVDSLAT [RPN7] | 2.23 ± 0.18 |  |  | 
39 | SSEYETINISLSFSWAI [NUT1] | 1.51 ± 0.1 | 1.64 ± 0.16 | 2.21 ± 0.13 | 2.4 ± 0.13
40 | AVPAATPANTNNSTSNA [SWI1] | 2.52 ± 0.06 | 2.99 ± 0.053 | 2.65 ± 0.053 | 2.96 ± 0.04
41 | KLLNDLALENGEITKTE [NUT1] | 3.13 ± 0.15 | 3.09 ± 0.22 | 2.78 ± 0.2 | 3.18 ± 0.086
42 | KLPKVYKRSIVRNYKPL [SWI1] | 2.8 ± 0.086 | 2.99 ± 0.089 | 2.89 ± 0.074 | 2.96 ± 0.12
43 | GTVSRVNRLLSVIPLKG [RRP4] | 1.25 ± 0.058 | 1.38 ± 0.05 | 1.2 ± 0.14 | 1.23 ± 0.048
44 | FSWGRPADSTYGAYNTQ [PRE4] | 2.75 ± 0.081 | 2.68 ± 0.064 | 2.94 ± 0.059 | 3.04 ± 0.047
45 | LKKLEKFMELERKTLER [SWI3] | 2.95 ± 0.061 | 2.84 ± 0.069 | 3.18 ± 0.046 | 2.66 ± 0.058
